Laboratory results: patent publication US20150203577A1 (Chugai, published 2015)
Where a chain is given by its changes, count along the chain named.

B1: H237-MB860/MRAL-k0 (antibody, mouse IgG1, kappa)
heavy: QVQLQESGPGLVKPSETLSLTCAVSGHSISHDHAWSWVRQPPGEGLEWIGFISYSGITNYNPSLQGRVTISRDNSKNTLYLQMNSLRAEDTAVYYCARSLARTTAMDYWGEGTLVTVSSAKTTPPSVYPLAPGSAAQTNSMVTLGCLVKGYFPEPVTVTWNSGSLSSGVHTFPAVLQSDLYTLSSSVTVPSSTWPSETVTCNVAHPASSTKVDKKIVPRDCGCKPCICEPNEVELVFIFPPKPKDVLTITLTPKVTCVVVDISKDDPEVQFSWFVDDVEVHTAQTQPREEQFNSTFRSVSELPIMHQDWLNGKEFKCRVNSDGFPAPIYRTISKTKGRPKAPQVYTIPPPKEQMAKDKVSLTCMITDFFPEDITVEWQWNGQPAENYKNTQPIMDTDGSYFVYSKLNVQKSNWEAGNTFTCSVLHEGLHNHHTEKSLSHSPGK
light: not shown
notes: copies: 2 + 2
B2: H237-MB877/MRAL-k0 (antibody, mouse IgG1, kappa)
heavy: B1 heavy with L235I, K264D, N320D, Y329E
light: not shown
notes: copies: 2 + 2
B3: H237-MB871/MRAL-k0 (antibody, mouse IgG1, kappa)
heavy: B1 heavy with L235I, K264D, Q291L, Y329E, R330K
light: not shown
notes: copies: 2 + 2
B4: H237-MB866/MRAL-k0 (antibody, mouse IgG1, kappa)
heavy: B1 heavy with L235I, Y329E, R330K
light: not shown
notes: copies: 2 + 2
B5: H237-MB306/MRAL-k0 (antibody, mouse IgG1, kappa)
heavy: B1 heavy with E229T, P230A, N231P, L235D, D322A, G323A, Y329E, R330K
light: not shown
notes: copies: 2 + 2
B6: H237-MB337/MRAL-k0 (antibody, mouse IgG1, kappa)
heavy: B1 heavy with P230A, N231P, L235D, D322A, G323A, Y329E, R330K
light: not shown
notes: copies: 2 + 2
B7: H237-MB869/MRAL-k0 (antibody, mouse IgG1, kappa)
heavy: B1 heavy with L235I, K264D, R330K
light: not shown
notes: copies: 2 + 2
B8: H237-MB340/MRAL-k0 (antibody, mouse IgG1, kappa)
heavy: B1 heavy with P230A, N231W, L235D, D322A, G323A, Y329E, R330K
light: not shown
notes: copies: 2 + 2
B9: H237-MB313/MRAL-k0 (antibody, mouse IgG1, kappa)
heavy: B1 heavy with E229T, P230V, N231E, L235D, D322A, G323A, Y329E, R330K
light: not shown
notes: copies: 2 + 2
B10: H237-MB863/MRAL-k0 (antibody, mouse IgG1, kappa)
heavy: B1 heavy with K264D, R330K
light: not shown
notes: copies: 2 + 2
B11: H237-MB338/MRAL-k0 (antibody, mouse IgG1, kappa)
heavy: B1 heavy with P230D, N231P, L235D, D322A, G323A, Y329E, R330K
light: not shown
notes: copies: 2 + 2
B12: H237-MB868/MRAL-k0 (antibody, mouse IgG1, kappa)
heavy: B1 heavy with L235I, K264D, N320D, Y329E, R330K
light: not shown
notes: copies: 2 + 2
B13: H237-MB302/MRAL-k0 (antibody, mouse IgG1, kappa)
heavy: B1 heavy with P230V, N231P, L235D, D322A, G323A, Y329E, R330K
light: not shown
notes: copies: 2 + 2
B14: H237-MB318/MRAL-k0 (antibody, mouse IgG1, kappa)
heavy: B1 heavy with P230V, N231E, L235D, D322A, G323A, Y329E, R330K
light: not shown
notes: copies: 2 + 2
B15: H237-MB867/MRAL-k0 (antibody, mouse IgG1, kappa)
heavy: B1 heavy with L235I, K264D, Y329E, R330K
light: not shown
notes: copies: 2 + 2
B16: H237-MB876/MRAL-k0 (antibody, mouse IgG1, kappa)
heavy: B1 heavy with L235I, K264D, Q291L, R330K
light: not shown
notes: copies: 2 + 2
B17: H237-MB339/MRAL-k0 (antibody, mouse IgG1, kappa)
heavy: B1 heavy with P230V, N231W, L235D, D322A, G323A, Y329E, R330K
light: not shown
notes: copies: 2 + 2
B18: H237-MB322/MRAL-k0 (antibody, mouse IgG1, kappa)
heavy: B1 heavy with P230D, N231E, L235D, D322A, G323A, Y329E, R330K
light: not shown
notes: copies: 2 + 2
B19: H237-MB870/MRAL-k0 (antibody, mouse IgG1, kappa)
heavy: B1 heavy with L235I, K264D, Y329E
light: not shown
notes: copies: 2 + 2
B20: H237-MB875/MRAL-k0 (antibody, mouse IgG1, kappa)
heavy: B1 heavy with L235I, K264D, Q291L, N320D, Y329E, R330K
light: not shown
notes: copies: 2 + 2
B21: H237-MB319/MRAL-k0 (antibody, mouse IgG1, kappa)
heavy: B1 heavy with P230A, N231E, L235D, D322A, G323A, Y329E, R330K
light: not shown
notes: copies: 2 + 2
B22: H237-MB862/MRAL-k0 (antibody, mouse IgG1, kappa)
heavy: B1 heavy with K264D, P327Y, Y329E, R330K
light: not shown
notes: copies: 2 + 2
B23: H237-MB310/MRAL-k0 (antibody, mouse IgG1, kappa)
heavy: B1 heavy with E229T, P230D, N231P, L235D, D322A, G323A, Y329E, R330K
light: not shown
notes: copies: 2 + 2

Key:
[1] = biological target: T1, mouse FcγRII extracellular domain, C-terminal His tag (mouse, UniProt P08101 30-210); assay: SPR (Biacore T200), antibody captured on Protein L, mFcγR analyte
T1 construct: also called mFcγRII; mFcgRII
T1 sequence: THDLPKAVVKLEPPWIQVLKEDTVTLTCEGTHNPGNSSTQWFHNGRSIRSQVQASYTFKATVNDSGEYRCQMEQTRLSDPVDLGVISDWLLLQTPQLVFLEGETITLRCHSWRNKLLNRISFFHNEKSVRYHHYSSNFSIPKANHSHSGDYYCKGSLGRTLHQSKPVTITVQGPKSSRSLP

[2] = biological target: T2, mouse FcγRIII extracellular domain, C-terminal His tag (mouse, UniProt P08508 31-215); assay: as above
T2 construct: also called mFcγRIII; mFcgRIII
T2 chain: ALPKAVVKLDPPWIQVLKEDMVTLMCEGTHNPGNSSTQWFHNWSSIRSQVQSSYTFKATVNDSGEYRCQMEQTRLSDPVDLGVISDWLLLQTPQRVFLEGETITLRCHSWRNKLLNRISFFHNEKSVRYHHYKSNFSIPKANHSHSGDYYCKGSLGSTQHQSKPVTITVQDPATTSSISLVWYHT

[3] = biological target: T3, mouse FcγRIII extracellular domain with C-terminal His tag (mouse, UniProt P08508 31-215); assay: SPR Biacore T200
T3 construct: Made on the basis of NCBI NP-034318.2; also called mFcγRIII; mFcgRIII
T3 chain: T2 chain
Method: (§1) Each altered antibody was analyzed for its interaction with each Fcγ receptor prepared above using Biacore T100 (GE Healthcare Japan Corp.), Biacore T200 (GE Healthcare Japan Corp.), Biacore A100, or Biacore 4000. The running buffer used was HBS-EP+ (GE Healthcare Japan Corp.). The assay temperature was set to 25° C. The sensor chips used were chips prepared by immobilizing Protein L (ACTIGEN or BioVision) onto Series S Sensor Chip CM5 (GE Healthcare Japan Corp.) or Series S Sensor Chip CM4 (GE Healthcare Japan Corp.) by the amine coupling method.
(§2) In order to calculate the KD value of each altered antibody for FcγR, kinetic analysis was conducted according to the following method: first, the antibody of interest was captured onto any of these chips and allowed to interact with mFcγR diluted with a running buffer. For the obtained sensorgram, the assay results were globally fit into the 1:1 Langmuir binding model using Biacore Evaluation Software to calculate an association rate constant ka (L/mol/s) and a dissociation rate constant kd (1/s). From these values, the dissociation constant KD (mol/L) was calculated.

[4] = biological target: T4, mouse FcγRII extracellular domain with C-terminal His tag (mouse, UniProt P08101 30-210); assay: SPR Biacore T200
T4 construct: Made on the basis of NCBI NP-034317.1; also called mFcγRII; mFcgRII
T4 sequence: T1 sequence
Method: as §1, §2

[5] = biological target: T4, mouse FcγRII extracellular domain with …; assay: SPR Biacore T200; KD mFcγRIII / KD mFcγRII
Method: as §1, §2

Binder	Kd [1]	relative mFcγRII-binding activity (mIgG1 = 1) [1]	Kd [2]	relative mFcγRIII-binding activity (mIgG1 = 1) [2]	relative mFcγRIII-binding activity (mIgG1 = 1) [3]	relative mFcγRII-binding activity (mIgG1 = 1) [4]	relative I/A (mFcγRII selectivity) (mIgG1 = 1) [5]	Kd [3]	Kd [4]	I/A (mFcγRII selectivity) [5]
B1	5.3 nM	39.6 fold vs H237-mIgG1/MRAL-k0	379 nM	0.7 fold vs H237-mIgG1/MRAL-k0						
B2	3.8 nM	55.3 fold vs H237-mIgG1/MRAL-k0	195 nM	1.4 fold vs H237-mIgG1/MRAL-k0						
B3	3.4 nM	61.8 fold vs H237-mIgG1/MRAL-k0	169 nM	1.7 fold vs H237-mIgG1/MRAL-k0						
B4	16.2 nM	13 fold vs H237-mIgG1/MRAL-k0	1570 nM	0.2 fold vs H237-mIgG1/MRAL-k0						
B5					4.2	65.8	15.7			
B6					4.6	73.4	16			
B7	5.12 nM	41 fold vs H237-mIgG1/MRAL-k0	300 nM	0.9 fold vs H237-mIgG1/MRAL-k0						
B8					9.9	221	22.4	28.6 nM	0.952 nM	30
B9					4	40.1	10.1			
B10	2.58 nM	81.3 fold vs H237-mIgG1/MRAL-k0	121 nM	2.3 fold vs H237-mIgG1/MRAL-k0						
B11					2.6	42.2	16.5			
B12	5.73 nM	36.6 fold vs H237-mIgG1/MRAL-k0	329 nM	0.9 fold vs H237-mIgG1/MRAL-k0						
B13					4.5	53.7	12			
B14					3.9	40.5	10.5			
B15	5.96 nM	35.2 fold vs H237-mIgG1/MRAL-k0	331 nM	0.9 fold vs H237-mIgG1/MRAL-k0						
B16	3.58 nM	58.7 fold vs H237-mIgG1/MRAL-k0	191 nM	1.5 fold vs H237-mIgG1/MRAL-k0						
B17					11.6	197	17			
B18					1.3	9.2	7.3			
B19	5.44 nM	38.6 fold vs H237-mIgG1/MRAL-k0	269 nM	1 fold vs H237-mIgG1/MRAL-k0						
B20	2.88 nM	72.8 fold vs H237-mIgG1/MRAL-k0	147 nM	1.9 fold vs H237-mIgG1/MRAL-k0						
B21					3.6	50	14.1			
B22	3.09 nM	67.9 fold vs H237-mIgG1/MRAL-k0	142 nM	2 fold vs H237-mIgG1/MRAL-k0						
B23					3.8	38.8	10.1			
